Data taken from patent US20150344540A1, “NOVEL GLP-1 RECEPTOR AGONISTS WITH CHOLESTEROL EFFLUX ACTIVITY” (NOVO NORDISK A/S, priority 2012, published 2015).
Where no end group is shown, it is not given here. [ ]: non-standard residue; d: D form. Aib = CC(C)(N)C(=O)O

B1: [Aib8,Val25,Gln27,Glu34,Lys35,Aib36,Ala37]-GLP-1-(7-37)-peptidyl-Glu-Phe-Leu amide (peptide)
peptide: H[Aib]EGTFTSDVSSYLEGQAVKQFIAWLVEK[Aib]AEFL-NH2
modifications: N-terminus assumed
SMILES: CC[C@H](C)[C@H](NC(=O)[C@H](Cc1ccccc1)NC(=O)[C@H](CCC(N)=O)NC(=O)[C@H](CCCCN)NC(=O)[C@@H](NC(=O)[C@H](C)NC(=O)[C@H](CCC(N)=O)NC(=O)CNC(=O)[C@H](CCC(=O)O)NC(=O)[C@H](CC(C)C)NC(=O)[C@H](Cc1ccc(O)cc1)NC(=O)[C@H](CO)NC(=O)[C@H](CO)NC(=O)[C@@H](NC(=O)[C@H](CC(=O)O)NC(=O)[C@H](CO)NC(=O)[C@@H](NC(=O)[C@H](Cc1ccccc1)NC(=O)[C@@H](NC(=O)CNC(=O)[C@H](CCC(=O)O)NC(=O)C(C)(C)NC(=O)[C@@H](N)Cc1c[nH]cn1)[C@@H](C)O)[C@@H](C)O)C(C)C)C(C)C)C(=O)N[C@@H](C)C(=O)N[C@@H](Cc1c[nH]c2ccccc12)C(=O)N[C@@H](CC(C)C)C(=O)N[C@H](C(=O)N[C@@H](CCC(=O)O)C(=O)N[C@@H](CCCCN)C(=O)NC(C)(C)C(=O)N[C@@H](C)C(=O)N[C@@H](CCC(=O)O)C(=O)N[C@@H](Cc1ccccc1)C(=O)N[C@@H](CC(C)C)C(N)=O)C(C)C
B2: [Aib8,Glu23,Val25,Glu34,Lys35,Aib36,Lys37]-GLP-1-(7-37)-peptidyl-Glu-Phe amide (peptide)
peptide: H[Aib]EGTFTSDVSSYLEGEAVKEFIAWLVEK[Aib]KEF-NH2
modifications: N-terminus assumed
SMILES: CC[C@H](C)[C@H](NC(=O)[C@H](Cc1ccccc1)NC(=O)[C@H](CCC(=O)O)NC(=O)[C@H](CCCCN)NC(=O)[C@@H](NC(=O)[C@H](C)NC(=O)[C@H](CCC(=O)O)NC(=O)CNC(=O)[C@H](CCC(=O)O)NC(=O)[C@H](CC(C)C)NC(=O)[C@H](Cc1ccc(O)cc1)NC(=O)[C@H](CO)NC(=O)[C@H](CO)NC(=O)[C@@H](NC(=O)[C@H](CC(=O)O)NC(=O)[C@H](CO)NC(=O)[C@@H](NC(=O)[C@H](Cc1ccccc1)NC(=O)[C@@H](NC(=O)CNC(=O)[C@H](CCC(=O)O)NC(=O)C(C)(C)NC(=O)[C@@H](N)Cc1c[nH]cn1)[C@@H](C)O)[C@@H](C)O)C(C)C)C(C)C)C(=O)N[C@@H](C)C(=O)N[C@@H](Cc1c[nH]c2ccccc12)C(=O)N[C@@H](CC(C)C)C(=O)N[C@H](C(=O)N[C@@H](CCC(=O)O)C(=O)N[C@@H](CCCCN)C(=O)NC(C)(C)C(=O)N[C@@H](CCCCN)C(=O)N[C@@H](CCC(=O)O)C(=O)N[C@@H](Cc1ccccc1)C(N)=O)C(C)C
B3: [Aib8,Glu23,Val25,Val29,Gln30,Glu34,Lys35,Aib36,Lys37]-GLP-1-(7-37)-peptidyl-Glu-Phe-Leu amide (peptide)
peptide: H[Aib]EGTFTSDVSSYLEGEAVKEFVQWLVEK[Aib]KEFL-NH2
modifications: N-terminus assumed
SMILES: CC(C)C[C@H](NC(=O)[C@H](Cc1ccccc1)NC(=O)[C@H](CCC(=O)O)NC(=O)[C@H](CCCCN)NC(=O)C(C)(C)NC(=O)[C@H](CCCCN)NC(=O)[C@H](CCC(=O)O)NC(=O)[C@@H](NC(=O)[C@H](CC(C)C)NC(=O)[C@H](Cc1c[nH]c2ccccc12)NC(=O)[C@H](CCC(N)=O)NC(=O)[C@@H](NC(=O)[C@H](Cc1ccccc1)NC(=O)[C@H](CCC(=O)O)NC(=O)[C@H](CCCCN)NC(=O)[C@@H](NC(=O)[C@H](C)NC(=O)[C@H](CCC(=O)O)NC(=O)CNC(=O)[C@H](CCC(=O)O)NC(=O)[C@H](CC(C)C)NC(=O)[C@H](Cc1ccc(O)cc1)NC(=O)[C@H](CO)NC(=O)[C@H](CO)NC(=O)[C@@H](NC(=O)[C@H](CC(=O)O)NC(=O)[C@H](CO)NC(=O)[C@@H](NC(=O)[C@H](Cc1ccccc1)NC(=O)[C@@H](NC(=O)CNC(=O)[C@H](CCC(=O)O)NC(=O)C(C)(C)NC(=O)[C@@H](N)Cc1c[nH]cn1)[C@@H](C)O)[C@@H](C)O)C(C)C)C(C)C)C(C)C)C(C)C)C(N)=O
B4: [Ala2,Lys17,Ala18,Arg20,Glu21,Leu27,Glu28,Lys29]-Glucagonyl-(1-29)-Val-Lys-Glu-Phe-Leu amide (peptide)
peptide: HAQGTFTSDYSKYLDSKAAREFVQWLLEKVKEFL-NH2
B5: [Aib8,Glu23,Val25,Glu34,Lys35,Aib36,Lys37]-GLP-1-(7-37)-peptidyl-Glu amide (peptide)
peptide: H[Aib]EGTFTSDVSSYLEGEAVKEFIAWLVEK[Aib]KE-NH2
modifications: N-terminus assumed
SMILES: CC[C@H](C)[C@H](NC(=O)[C@H](Cc1ccccc1)NC(=O)[C@H](CCC(=O)O)NC(=O)[C@H](CCCCN)NC(=O)[C@@H](NC(=O)[C@H](C)NC(=O)[C@H](CCC(=O)O)NC(=O)CNC(=O)[C@H](CCC(=O)O)NC(=O)[C@H](CC(C)C)NC(=O)[C@H](Cc1ccc(O)cc1)NC(=O)[C@H](CO)NC(=O)[C@H](CO)NC(=O)[C@@H](NC(=O)[C@H](CC(=O)O)NC(=O)[C@H](CO)NC(=O)[C@@H](NC(=O)[C@H](Cc1ccccc1)NC(=O)[C@@H](NC(=O)CNC(=O)[C@H](CCC(=O)O)NC(=O)C(C)(C)NC(=O)[C@@H](N)Cc1c[nH]cn1)[C@@H](C)O)[C@@H](C)O)C(C)C)C(C)C)C(=O)N[C@@H](C)C(=O)N[C@@H](Cc1c[nH]c2ccccc12)C(=O)N[C@@H](CC(C)C)C(=O)N[C@H](C(=O)N[C@@H](CCC(=O)O)C(=O)N[C@@H](CCCCN)C(=O)NC(C)(C)C(=O)N[C@@H](CCCCN)C(=O)N[C@@H](CCC(=O)O)C(N)=O)C(C)C
B6: [Aib8,Glu23,Lys24,Val25,Glu34,Lys35,Aib36,Lys37]-GLP-1-(7-37)-peptidyl-Glu-Phe-Leu amide (peptide)
peptide: H[Aib]EGTFTSDVSSYLEGEKVKEFIAWLVEK[Aib]KEFL-NH2
modifications: N-terminus assumed
SMILES: CC[C@H](C)[C@H](NC(=O)[C@H](Cc1ccccc1)NC(=O)[C@H](CCC(=O)O)NC(=O)[C@H](CCCCN)NC(=O)[C@@H](NC(=O)[C@H](CCCCN)NC(=O)[C@H](CCC(=O)O)NC(=O)CNC(=O)[C@H](CCC(=O)O)NC(=O)[C@H](CC(C)C)NC(=O)[C@H](Cc1ccc(O)cc1)NC(=O)[C@H](CO)NC(=O)[C@H](CO)NC(=O)[C@@H](NC(=O)[C@H](CC(=O)O)NC(=O)[C@H](CO)NC(=O)[C@@H](NC(=O)[C@H](Cc1ccccc1)NC(=O)[C@@H](NC(=O)CNC(=O)[C@H](CCC(=O)O)NC(=O)C(C)(C)NC(=O)[C@@H](N)Cc1c[nH]cn1)[C@@H](C)O)[C@@H](C)O)C(C)C)C(C)C)C(=O)N[C@@H](C)C(=O)N[C@@H](Cc1c[nH]c2ccccc12)C(=O)N[C@@H](CC(C)C)C(=O)N[C@H](C(=O)N[C@@H](CCC(=O)O)C(=O)N[C@@H](CCCCN)C(=O)NC(C)(C)C(=O)N[C@@H](CCCCN)C(=O)N[C@@H](CCC(=O)O)C(=O)N[C@@H](Cc1ccccc1)C(=O)N[C@@H](CC(C)C)C(N)=O)C(C)C
B7: [Ala2,Glu21,Lys29,Val30,Leu31,Glu32,Phe33,Leu34]-Exendin-4-(1-34)-peptide amide (peptide)
peptide: HAEGTFTSDLSKQMEEEAVREFIEWLKNKVLEFL-NH2
B8: [Aib8,Glu23,Lys24,Val25,Glu30,His31,Glu34,Lys35,Aib36,Lys37]-GLP-1-(7-37)-peptidyl-Glu-Phe-Leu amide (peptide)
peptide: H[Aib]EGTFTSDVSSYLEGEKVKEFIEHLVEK[Aib]KEFL-NH2
modifications: N-terminus assumed
SMILES: CC[C@H](C)[C@H](NC(=O)[C@H](Cc1ccccc1)NC(=O)[C@H](CCC(=O)O)NC(=O)[C@H](CCCCN)NC(=O)[C@@H](NC(=O)[C@H](CCCCN)NC(=O)[C@H](CCC(=O)O)NC(=O)CNC(=O)[C@H](CCC(=O)O)NC(=O)[C@H](CC(C)C)NC(=O)[C@H](Cc1ccc(O)cc1)NC(=O)[C@H](CO)NC(=O)[C@H](CO)NC(=O)[C@@H](NC(=O)[C@H](CC(=O)O)NC(=O)[C@H](CO)NC(=O)[C@@H](NC(=O)[C@H](Cc1ccccc1)NC(=O)[C@@H](NC(=O)CNC(=O)[C@H](CCC(=O)O)NC(=O)C(C)(C)NC(=O)[C@@H](N)Cc1c[nH]cn1)[C@@H](C)O)[C@@H](C)O)C(C)C)C(C)C)C(=O)N[C@@H](CCC(=O)O)C(=O)N[C@@H](Cc1c[nH]cn1)C(=O)N[C@@H](CC(C)C)C(=O)N[C@H](C(=O)N[C@@H](CCC(=O)O)C(=O)N[C@@H](CCCCN)C(=O)NC(C)(C)C(=O)N[C@@H](CCCCN)C(=O)N[C@@H](CCC(=O)O)C(=O)N[C@@H](Cc1ccccc1)C(=O)N[C@@H](CC(C)C)C(N)=O)C(C)C
B9: [Aib8,Glu23,Lys24,Val25,Glu34,Aib36,Lys37]-GLP-1-(7-37)-peptidyl-Glu-Phe-Leu amide (peptide)
peptide: H[Aib]EGTFTSDVSSYLEGEKVKEFIAWLVEG[Aib]KEFL-NH2
modifications: N-terminus assumed
SMILES: CC[C@H](C)[C@H](NC(=O)[C@H](Cc1ccccc1)NC(=O)[C@H](CCC(=O)O)NC(=O)[C@H](CCCCN)NC(=O)[C@@H](NC(=O)[C@H](CCCCN)NC(=O)[C@H](CCC(=O)O)NC(=O)CNC(=O)[C@H](CCC(=O)O)NC(=O)[C@H](CC(C)C)NC(=O)[C@H](Cc1ccc(O)cc1)NC(=O)[C@H](CO)NC(=O)[C@H](CO)NC(=O)[C@@H](NC(=O)[C@H](CC(=O)O)NC(=O)[C@H](CO)NC(=O)[C@@H](NC(=O)[C@H](Cc1ccccc1)NC(=O)[C@@H](NC(=O)CNC(=O)[C@H](CCC(=O)O)NC(=O)C(C)(C)NC(=O)[C@@H](N)Cc1c[nH]cn1)[C@@H](C)O)[C@@H](C)O)C(C)C)C(C)C)C(=O)N[C@@H](C)C(=O)N[C@@H](Cc1c[nH]c2ccccc12)C(=O)N[C@@H](CC(C)C)C(=O)N[C@H](C(=O)N[C@@H](CCC(=O)O)C(=O)NCC(=O)NC(C)(C)C(=O)N[C@@H](CCCCN)C(=O)N[C@@H](CCC(=O)O)C(=O)N[C@@H](Cc1ccccc1)C(=O)N[C@@H](CC(C)C)C(N)=O)C(C)C
B10: [Glu23,Val25,Glu34,Lys35,Val36,Lys37]-GLP-1-(7-37)-peptidyl-Glu-Phe-Leu amide (peptide)
peptide: HAEGTFTSDVSSYLEGEAVKEFIAWLVEKVKEFL-NH2

Each binder was assayed against human GLP-1 receptor (human, UniProt P43220) (assay: cell-based or functional assay).

Compared with B1, B2 is 8.7-fold lower in “CRE luciferase EC50, 0% HSA” value: 0.191 nM for the first, 0.022 nM for the second.

Compared with B3, B4 is 7.7-fold higher in “CRE luciferase EC50, 0% HSA” value: 0.126 nM for the first, 0.971 nM for the second.

First: B5
Second: B6
The “CRE luciferase EC50, 0% HSA” value of the first is 35-fold lower: 0.014 nM for the first, 0.487 nM for the second.

Compared with B7, B8 is 59-fold higher in “CRE luciferase EC50, 0% HSA” value: 0.031 nM for the first, 1.84 nM for the second.

B9 and B10 are within 1.5-fold of each other in “CRE luciferase EC50, 0% HSA” value: 0.461 nM for the first, 0.44 nM for the second.

Compared with B1, B2 is 4.6-fold lower in “CRE luciferase EC50, 1% HSA” value: 0.069 nM for the first, 0.015 nM for the second.

Compared with B3, B4 is 6.2-fold higher in “CRE luciferase EC50, 1% HSA” value: 0.037 nM for the first, 0.231 nM for the second.

Compared with B5, B6 is 35-fold higher in “CRE luciferase EC50, 1% HSA” value: 0.005 nM for the first, 0.174 nM for the second.

Compared with B7, B8 is 30-fold higher in “CRE luciferase EC50, 1% HSA” value: 0.02 nM for the first, 0.593 nM for the second.

Compared with B9, B10 is 1.5-fold higher in “CRE luciferase EC50, 1% HSA” value: 0.111 nM for the first, 0.171 nM for the second.
